Results from PMC11808424.
pKd: −log10 of the molar value.

Target: soluble His‐tagged human LRP4 (low‐density lipoprotein receptor‐related protein 4) (human) (UniProt O75096)
Assay: SPR

Sequence of UniProt O75096 (O75096 21-1725): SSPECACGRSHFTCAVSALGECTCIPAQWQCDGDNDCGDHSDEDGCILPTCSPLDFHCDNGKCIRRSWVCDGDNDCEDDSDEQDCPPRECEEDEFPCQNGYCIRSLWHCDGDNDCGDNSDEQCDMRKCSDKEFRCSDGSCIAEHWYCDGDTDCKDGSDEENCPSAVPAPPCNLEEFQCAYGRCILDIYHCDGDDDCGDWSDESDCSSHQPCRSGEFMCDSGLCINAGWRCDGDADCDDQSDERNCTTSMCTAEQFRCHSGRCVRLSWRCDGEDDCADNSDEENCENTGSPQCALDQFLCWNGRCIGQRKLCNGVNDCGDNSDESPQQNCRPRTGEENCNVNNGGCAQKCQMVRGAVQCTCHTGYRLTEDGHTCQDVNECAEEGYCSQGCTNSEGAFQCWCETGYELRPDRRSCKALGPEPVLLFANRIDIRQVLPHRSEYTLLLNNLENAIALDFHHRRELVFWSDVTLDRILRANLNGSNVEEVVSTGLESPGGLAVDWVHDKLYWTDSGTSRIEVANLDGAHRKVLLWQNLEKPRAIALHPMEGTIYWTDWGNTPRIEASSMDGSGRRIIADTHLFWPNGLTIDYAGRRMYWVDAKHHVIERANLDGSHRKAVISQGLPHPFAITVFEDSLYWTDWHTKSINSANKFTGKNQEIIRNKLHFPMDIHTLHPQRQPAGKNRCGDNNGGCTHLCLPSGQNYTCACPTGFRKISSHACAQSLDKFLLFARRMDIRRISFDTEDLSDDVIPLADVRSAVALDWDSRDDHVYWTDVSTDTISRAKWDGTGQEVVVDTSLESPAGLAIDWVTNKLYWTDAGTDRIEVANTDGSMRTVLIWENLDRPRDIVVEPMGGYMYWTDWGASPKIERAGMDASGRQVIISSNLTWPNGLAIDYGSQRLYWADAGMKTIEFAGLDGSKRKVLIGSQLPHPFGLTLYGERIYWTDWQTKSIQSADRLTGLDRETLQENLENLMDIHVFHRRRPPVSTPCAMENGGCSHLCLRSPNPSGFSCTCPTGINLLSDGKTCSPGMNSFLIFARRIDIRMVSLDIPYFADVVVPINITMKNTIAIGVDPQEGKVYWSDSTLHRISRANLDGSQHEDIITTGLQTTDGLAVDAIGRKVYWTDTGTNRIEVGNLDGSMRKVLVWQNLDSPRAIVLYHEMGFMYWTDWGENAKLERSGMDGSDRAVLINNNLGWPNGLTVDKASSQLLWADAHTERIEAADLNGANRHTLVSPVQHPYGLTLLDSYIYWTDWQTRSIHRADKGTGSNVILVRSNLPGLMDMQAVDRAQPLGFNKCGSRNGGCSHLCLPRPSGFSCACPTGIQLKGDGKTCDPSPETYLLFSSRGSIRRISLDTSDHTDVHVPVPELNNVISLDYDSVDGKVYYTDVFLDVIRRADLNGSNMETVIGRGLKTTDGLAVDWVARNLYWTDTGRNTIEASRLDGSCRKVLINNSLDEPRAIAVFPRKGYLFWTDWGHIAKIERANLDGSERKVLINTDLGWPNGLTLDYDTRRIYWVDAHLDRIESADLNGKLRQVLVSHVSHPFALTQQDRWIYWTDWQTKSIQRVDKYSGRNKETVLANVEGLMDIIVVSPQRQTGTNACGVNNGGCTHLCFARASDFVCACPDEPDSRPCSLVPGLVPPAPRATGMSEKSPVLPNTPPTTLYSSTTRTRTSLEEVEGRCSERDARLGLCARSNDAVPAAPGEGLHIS

Row | pKd | Substance
1 | 4.44 | purified soluble Scl_(K75E) (natural protein)
2 | 4.69 | purified soluble Scl_(K75Q) (natural protein)
3 | 5.12 | purified soluble Scl_(V136D) (natural protein)
